Measurements taken from PMC10831248, “Characterization of membrane protein interactions by peptidisc-mediated mass photometry” (iScience, 2024).

Experiments:
[1] = molecular target: T1, vitamin B12 ABC transporter BtuCD, reconstituted in peptidiscs (E. coli, UniProt P06609 1-326; P06611 1-249); assay: 1 mM ATP
T1 chain 1: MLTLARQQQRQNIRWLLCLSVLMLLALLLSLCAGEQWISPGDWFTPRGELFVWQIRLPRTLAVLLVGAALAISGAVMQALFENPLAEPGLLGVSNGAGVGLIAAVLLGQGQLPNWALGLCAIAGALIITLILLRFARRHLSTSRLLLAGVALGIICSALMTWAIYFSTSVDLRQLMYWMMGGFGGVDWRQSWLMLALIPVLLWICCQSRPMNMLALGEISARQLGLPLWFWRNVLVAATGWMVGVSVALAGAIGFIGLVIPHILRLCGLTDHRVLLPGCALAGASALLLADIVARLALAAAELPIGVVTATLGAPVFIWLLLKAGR
T1 chain 2: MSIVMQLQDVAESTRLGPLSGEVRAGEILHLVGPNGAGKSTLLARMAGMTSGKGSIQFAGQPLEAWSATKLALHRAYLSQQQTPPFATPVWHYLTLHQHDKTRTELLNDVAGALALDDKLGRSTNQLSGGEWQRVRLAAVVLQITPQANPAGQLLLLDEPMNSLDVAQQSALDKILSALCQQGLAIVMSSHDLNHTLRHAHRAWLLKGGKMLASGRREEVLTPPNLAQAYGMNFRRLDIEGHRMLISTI

[2] = molecular target: T1, vitamin B12 ABC transporter BtuCD, …; assay: without ATP
[3] = molecular target: the molecule itself; assay: mass photometry; SEC fractions of His-tagged membrane proteins purified on Ni-NTA and reconstituted into peptidiscs, diluted 100-fold in PBS to ~5-20 nM; main species: subunits together in the native oligomer or complex in one disc
mass photometry = molecular target: the molecule itself; assay: mass photometry

B1: periplasmic B12 binding protein BtuF (natural protein)
chain: APRVITLSPANTELAFAAGITPVGVSSYSDYPPQAQKIEQVSTWQGMNLERIVALKPDLVIAWRGGNAERQVDQLASLGIKVMWVDATSIEQIANALRQLAPWSPQPDKAEQAAQSLLDQYAQLKAQYADKPKKRVFLQFGINPPFTSGKESIQNQVLEVCGGENIFKDSRVPWPQVSREQVLARSPQAIVITGGPDQIPKIKQYWGEQLKIPVIPLTSDWFERASPRIILAAQQLCNALSQVD
In the case of B1, the Kd [1] is reported as 25 nM and the Kd [2] is reported as 48 nM.

B2: trimeric drug efflux pump AcrB (natural protein, E. coli, UniProt P31224 1-1049, looked up)
chain: MPNFFIDRPIFAWVIAIIIMLAGGLAILKLPVAQYPTIAPPAVTISASYPGADAKTVQDTVTQVIEQNMNGIDNLMYMSSNSDSTGTVQITLTFESGTDADIAQVQVQNKLQLAMPLLPQEVQQQGVSVEKSSSSFLMVVGVINTDGTMTQEDISDYVAANMKDAISRTSGVGDVQLFGSQYAMRIWMNPNELNKFQLTPVDVITAIKAQNAQVAAGQLGGTPPVKGQQLNASIIAQTRLTSTEEFGKILLKVNQDGSRVLLRDVAKIELGGENYDIIAEFNGQPASGLGIKLATGANALDTAAAIRAELAKMEPFFPSGLKIVYPYDTTPFVKISIHEVVKTLVEAIILVFLVMYLFLQNFRATLIPTIAVPVVLLGTFAVLAAFGFSINTLTMFGMVLAIGLLVDDAIVVVENVERVMAEEGLPPKEATRKSMGQIQGALVGIAMVLSAVFVPMAFFGGSTGAIYRQFSITIVSAMALSVLVALILTPALCATMLKPIAKGDHGEGKKGFFGWFNRMFEKSTHHYTDSVGGILRSTGRYLVLYLIIVVGMAYLFVRLPSSFLPDEDQGVFMTMVQLPAGATQERTQKVLNEVTHYYLTKEKNNVESVFAVNGFGFAGRGQNTGIAFVSLKDWADRPGEENKVEAITMRATRAFSQIKDAMVFAFNLPAIVELGTATGFDFELIDQAGLGHEKLTQARNQLLAEAAKHPDMLTSVRPNGLEDTPQFKIDIDQEKAQALGVSINDINTTLGAAWGGSYVNDFIDRGRVKKVYVMSEAKYRMLPDDIGDWYVRAADGQMVPFSAFSSSRWEYGSPRLERYNGLPSMEILGQAAPGKSTGEAMELMEQLASKLPTGVGYDWTGMSYQERLSGNQAPSLYAISLIVVFLCLAALYESWSIPFSVMLVVPLGVIGALLAATFRGLTNDVYFQVGLLTTIGLSAKNAILIVEFAKDLMDKEGKGLIEATLDAVRMRLRPILMTSLAFILGVMPLVISTGAGSGAQNAVGTGVMGGMVTATVLAIFFVPVFFVVVRRRFSRKNEDIEHSHTVDHH
notes: AcrB, multidrug efflux pump subunit, E. coli; It is carried in a peptidisc; source: E. coli C43(DE3), purified (DDM extraction, Ni-NTA, reconstituted into peptidiscs, SEC); not shown: His6, C-terminal, kept
B2: binds [3].

B3: mechanosensitive channel of large conductance (MscL) from Mycobacterium tuberculosis (natural protein)
chain: MLKGFKEFLARGNIVDLAVAVVIGTAFTALVTKFTDSIITPLINRIGVNAQSDVGILRIGIGGGQTIDLNVLLSAAINFFLIAFAVYFLVVLPYNTLRKKGEVEQPGDTQVVLLTEIRDLLAQTNGDSPGRHGGRGTPSPTDGPRASTESQ
notes: MscL, large-conductance mechanosensitive channel, Mycobacterium tuberculosis; also called M. Tb MscL; not shown: His6, C-terminal, kept
B3: binds (mass photometry).
